Assay results: PMC3601957, “Structural Basis of Rap Phosphatase Inhibition by Phr Peptides” (PLoS Biology, 2013)

Columns and labels:
[1] = target: T1, RapF (Bacillus subtilis, UniProt P71002); assay: Thermal-shift peptide binding assay, wild-type RapF; design: species or system B. subtilis; conditions: peptide 1 mM, PhrA and PhrE: unpublished data
T1 construct: 6xHis (N, cleaved yes); made in house; host or cells: Escherichia coli BL21 RIL
T1 sequence (P71002 whole entry, looked up): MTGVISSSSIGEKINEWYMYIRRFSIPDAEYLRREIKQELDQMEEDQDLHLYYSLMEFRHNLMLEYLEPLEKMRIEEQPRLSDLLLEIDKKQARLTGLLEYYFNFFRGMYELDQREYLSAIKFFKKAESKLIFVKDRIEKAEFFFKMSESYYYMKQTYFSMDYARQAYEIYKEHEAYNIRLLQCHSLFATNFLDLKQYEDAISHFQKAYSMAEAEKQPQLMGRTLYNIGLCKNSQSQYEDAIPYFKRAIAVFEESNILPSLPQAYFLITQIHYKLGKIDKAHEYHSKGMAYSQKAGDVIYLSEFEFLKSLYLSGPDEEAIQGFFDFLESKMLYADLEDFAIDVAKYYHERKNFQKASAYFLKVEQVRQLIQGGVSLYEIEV
Method: The thermal-shift assay was conducted in a 7500 Fast Real-time PCR System (Applied Biosystems). Final melt conditions were 20 mM Tris-HCl (pH 8), 100 mM NaCl, 20 µM RapF, and 5× SYPRO Orange (Sigma-Aldrich). The final concentration of the inhibitory peptides was 1 mM when they were present. The assays were carried out at a final volume of 20 µl in 96-well PCR plates. Samples were heated at 1°C/min. Fluorescent intensity was plotted versus temperature and integrated with the GraphPad Prism 4 software using a Boltzmann model to calculate melting temperatures.

[2] = target: T1, RapF; assay: Limited proteolysis with trypsin, wild-type RapF; assay type: biochemical, B. subtilis; conditions: wild-type RapF 1.5 mg/ml, peptide 1 mM, trypsin 1:10,000, 37°C, 0-90 min, SDS-PAGE / native PAGE (60 min); PhrA and PhrE: unpublished data
Method: Wild-type RapF and mutant variants (RapF^E303K, RapF^E303A, RapF^N227A, and RapF^D194A) at a concentration of 1.5 mg/ml were pre-incubated in lysis buffer (10 mM Tris-HCl [pH 8], 0.1 mM EDTA, 1 mM β-mercaptoethanol, 100 mM NaCl, 5% glycerol, and 5 mM CaCl2) in the presence (1 mM) or absence of inhibitory peptides at room temperature for 30 min. The protein was subjected to proteolysis by trypsin (1∶10,000) at 37°C and aliquots of the reaction mixture were taken after 0, 10, 30, and 90 min of incubation, mixed with SDS–PAGE loading buffer and immediately boiled to stop the enzyme reaction. Samples were then separated on 12% acrylamide SDS–PAGE and stained with Coomassie brilliant blue. For the peptide titration experiments, RapF was incubated in lysis buffer with increasing concentrations of PhrF at room temperature for 30 min and subjected to limited proteolysis with trypsin(1∶10,000) at 37°C for 60 min. The reactions were stopped SDS–PAGE loading buffer and analyzed by SDS–PAGE.

[3] = test system: RapA; conditions: cited from earlier work
From the text: The RNPP family of Gram-positive quorum sensors presents a characteristic C-terminal TPR domain with seven TPR repeats for the structurally known Raps (RapF and RapH) (Figures 1E and S3),[31]. The RapF TPR domain folded in a large superhelix to generate a pseudo circular structure that was closed in a wide channel (8,588 Å^3, calculated by the CASTp software) by the interaction of the terminal part of TPR7 (and the following C-terminal tail) with the initial part of TPR1 (Figure 1). As a channel, the generated ring-like structure was open on both faces (Figures S4, upper panel) ... || Peptide anchoring should be independent of its sequence. Thus, it is primarily mediated by interactions with the peptide main chain. These interactions are mainly polar in nature and involve the side chain hydrogen bonds and salt bridges of Tyr66, Tyr152, Gln183, Arg223, Asn227, Gln263, and Asp338 with the PhrF backbone (Figure 2). Additionally, the conserved Arg at position 2 of the Phr peptides is anchored by a salt bridge with the side chain of a conserved Asp residue (Asp194 in RapF) from TPR3 (Figure 2). […] The conserved asparagine in the RNPP family (Asn227 in RapF) interacts with the PhrF backbone and supports the key role of this residue in peptide accommodation.

[4] = target: T2, RapF^E303K (B. subtilis, UniProt P71002 1-381, E303K); assay: native gel or EMSA; titration on 8% native gel; 20 µg protein, peptide 50 nM to 1.2 mM in 20 µl buffer A, 15 min at room temperature; midpoint of the transition taken as the apparent Kd; conditions: both partners purified
T2 construct: RapF of Bacillus subtilis with Glu303 changed to Lys, made from pPROEX-RapF by site-directed mutagenesis; Same construct as m1 with the point mutation; also called RapF Glu303Lys; source: E. coli BL21 RIL, purified as native RapF; not shown: His6, N-terminal, cleaved
T2 sequence: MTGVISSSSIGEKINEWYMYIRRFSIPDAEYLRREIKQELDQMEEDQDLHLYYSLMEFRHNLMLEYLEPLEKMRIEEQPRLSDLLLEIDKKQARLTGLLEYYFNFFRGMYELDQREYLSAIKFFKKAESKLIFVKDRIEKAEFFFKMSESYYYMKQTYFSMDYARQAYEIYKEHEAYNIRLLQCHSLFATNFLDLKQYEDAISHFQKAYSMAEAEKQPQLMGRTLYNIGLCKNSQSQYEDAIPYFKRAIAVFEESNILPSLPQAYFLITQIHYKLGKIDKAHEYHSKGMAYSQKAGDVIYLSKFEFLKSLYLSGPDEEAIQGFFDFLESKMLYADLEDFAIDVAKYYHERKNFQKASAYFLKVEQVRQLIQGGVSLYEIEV

[5] = target: T3, RapF (B. subtilis, UniProt P71002 1-381); assay: as above; conditions: both partners purified
T3 construct: RapF of Bacillus subtilis, amplified from genomic DNA and cloned in pPROEX-HTa; The text speaks of residues up to Val381, which fits the whole protein; also called wild-type RapF; native RapF; source: E. coli BL21 RIL, purified (HisTrap, TEV digestion, Superdex 200); not shown: His6, N-terminal, cleaved
T3 sequence: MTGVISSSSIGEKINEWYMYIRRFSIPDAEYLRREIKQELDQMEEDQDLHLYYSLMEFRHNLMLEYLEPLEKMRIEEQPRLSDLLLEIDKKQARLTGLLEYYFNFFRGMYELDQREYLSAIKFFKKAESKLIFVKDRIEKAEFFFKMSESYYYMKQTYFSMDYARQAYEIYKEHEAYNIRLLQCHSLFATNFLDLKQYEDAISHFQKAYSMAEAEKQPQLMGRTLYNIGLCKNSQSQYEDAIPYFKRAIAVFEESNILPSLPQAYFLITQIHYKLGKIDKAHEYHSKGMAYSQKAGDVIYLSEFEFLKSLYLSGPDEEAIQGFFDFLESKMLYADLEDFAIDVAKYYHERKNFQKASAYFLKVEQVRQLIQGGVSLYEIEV

[6] = target: T4, RapF^E303A (B. subtilis, UniProt P71002 1-381, E303A); assay: as above; conditions: both partners purified
T4 construct: RapF of Bacillus subtilis with Glu303 changed to Ala, made from pPROEX-RapF by site-directed mutagenesis; Same construct as m1 with the point mutation; also called RapF Glu303Ala; source: E. coli BL21 RIL, purified as native RapF; not shown: His6, N-terminal, cleaved
T4 sequence: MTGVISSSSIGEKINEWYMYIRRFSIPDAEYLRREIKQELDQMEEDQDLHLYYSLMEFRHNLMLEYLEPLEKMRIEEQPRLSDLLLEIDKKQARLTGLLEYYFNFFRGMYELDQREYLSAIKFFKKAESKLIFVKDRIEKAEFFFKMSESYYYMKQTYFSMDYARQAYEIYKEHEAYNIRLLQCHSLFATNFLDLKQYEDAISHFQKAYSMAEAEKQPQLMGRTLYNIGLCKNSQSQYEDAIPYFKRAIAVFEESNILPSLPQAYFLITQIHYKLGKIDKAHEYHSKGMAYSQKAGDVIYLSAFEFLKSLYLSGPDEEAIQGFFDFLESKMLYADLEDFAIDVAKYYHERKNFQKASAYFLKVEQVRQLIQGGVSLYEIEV

[7] = target: T5, RapF^D194A (B. subtilis, UniProt P71002 1-381, D194A)
T5 sequence: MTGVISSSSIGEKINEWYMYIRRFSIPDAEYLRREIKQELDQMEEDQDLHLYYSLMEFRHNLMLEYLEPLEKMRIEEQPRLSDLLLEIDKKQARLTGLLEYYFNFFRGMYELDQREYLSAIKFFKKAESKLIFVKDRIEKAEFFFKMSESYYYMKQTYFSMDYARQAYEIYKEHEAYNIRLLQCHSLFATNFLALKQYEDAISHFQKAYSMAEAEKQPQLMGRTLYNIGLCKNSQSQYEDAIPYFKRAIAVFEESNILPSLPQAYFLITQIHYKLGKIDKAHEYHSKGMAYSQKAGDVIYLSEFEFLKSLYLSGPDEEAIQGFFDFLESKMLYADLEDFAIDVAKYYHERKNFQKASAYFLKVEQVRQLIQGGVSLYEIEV

[8] = target: T6, RapF^N227A (B. subtilis, UniProt P71002 1-381, N227A)
T6 sequence: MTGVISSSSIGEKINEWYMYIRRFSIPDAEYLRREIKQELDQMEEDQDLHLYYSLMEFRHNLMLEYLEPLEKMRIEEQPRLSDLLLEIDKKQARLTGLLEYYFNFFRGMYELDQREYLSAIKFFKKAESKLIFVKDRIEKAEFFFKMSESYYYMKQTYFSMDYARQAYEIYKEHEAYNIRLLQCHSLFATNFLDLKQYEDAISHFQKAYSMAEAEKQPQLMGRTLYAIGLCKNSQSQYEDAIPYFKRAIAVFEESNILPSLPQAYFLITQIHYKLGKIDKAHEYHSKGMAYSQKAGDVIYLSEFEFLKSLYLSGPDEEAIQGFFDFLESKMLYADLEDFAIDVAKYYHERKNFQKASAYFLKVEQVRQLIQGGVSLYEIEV

[9] = target: T3, RapF; assay: thermal-shift assay (SYPRO Orange); 20 µM RapF, peptides 1 mM; 20 mM Tris-HCl pH 8, 100 mM NaCl; heated at 1°C/min; conditions: both partners purified

For “PhrE: PhrE, non RapF partner peptide (SRNVT)”, the “thermal stabilization by peptide” value [1] was “presented identical melting transitions to those observed in the absence of peptide” and the “protection of RapF against trypsin digestion” value [2] was “did not protect against trypsin attack”.

In the case of “PhrA: PhrA, inhibitor peptide of RapA; non RapF partner peptide (ARNQT)”, the “sensitivity of RapA Asp192 and His260 mutants to peptide” value ([3]; RapA Asp192 and His260 mutants, Spo0F∼P dephosphorylation unaffected) is listed as “insensitive to the inhibitory activity of PhrA”, the “binding to RapA Tyr224 or His260 to alanine mutants” value ([3]; RapA Tyr224Ala or His260Ala, no effect on enzymatic activity) is listed as “completely abolishes the capacity to bind PhrA” and the “binding to RapA mutant, Asn to Ala (position of RapF Asn227)” value ([3]; RapA mutant, intact capacity to bind Spo0F) is listed as “impaired capacity to bind the PhrA peptide”. The “requirement for inhibition of RapA” value [3] was “requirement of the free terminal carboxylate group”, the “sensitivity of RapA mutants at positions of RapF Tyr226 and Leu230” value ([3]; functional RapA variants) was “completely insensitive to the PhrA peptide” and the “thermal stabilization by peptide” value [1] was “presented identical melting transitions to those observed in the absence of peptide”. The “protection of RapF against trypsin digestion” value [2] was “did not protect against trypsin attack”.

B1: PhrC (peptide)
peptide: ERGMT
notes: mature active form of the PhrC precursor; also called PhrC peptide; RapC (PhrC) peptide
With B1 the Kd [4] was 19.6 µM.

B2: PhrF (peptide)
peptide: QRGMI
notes: mature active form of the PhrF precursor; The purchase from Genescript is stated for the crystallisation; no other source is named; also called PhrF peptide; source: bought: Genescript
With B2 the Kd [5] was 3.1 µM, the Kd [4] was 13.2 µM and the Kd [6] was 29 µM. The Kd [7] was greater than 1200 µM, the Kd [8] was greater than 1200 µM and the “increment in the melting temperature of RapF with PhrF” value [9] was roughly 20 °C.
